Measurements published in PMC4963926 (Journal of Translational Medicine, 2016).

B1: HPV16 His6-E6 protein (natural protein)
chain: MHQKRTAMFQDPQERPRKLPQLCTELQTTIHDIILECVYCKQQLLRREVYDFAFRDLCIVYRDGNPYAVCDKCLKFYSKISEYRHYCYSLYGTTLEQQYNKPLCDLLIRCINCQKPLCPEEKQRHLDKKQRFHNIRGRWTGRCMSCCRSSRTRRETQL
notes: also called HR-HPV16 His6-E6; HPV16 E6
B2: HPV11 His6-E6 protein (natural protein)
chain: MESKDASTSATSIDQLCKTFNLSLHTLQIQCVFCRNALTTAEIYAYAYKNLKVVWRDNFPFAACACCLELQGKINQYRHFNYAAYAPTVEEETNEDILKVLIRCYLCHKPLCEIEKLKHILGKARFIKLNNQWKGRCLHCWTTCMEDLLP

Target: the molecule itself
Assay: SDS-PAGE and immunoblotting of the purified protein

Protein	binding result
B1	binds
B2	binds
